For 4 proteins, reader value results are on record in US20200241008.

To fix the notation:
T1: indicator molecule containing the cleavable sequence (GPQGIFGQ) with a terminal biotin group connected via a polyethylene glycol spacer/linker, intact
T1 chain: GPQGIFGQ

B1: MMP7 (Enzo) (protein)
chain: YSLFPNSPKWTSKVVTYRIVSYTRDLPHITVDRLVSKALNMWGKEIPLHFRKVVWGTADIMIGFARGAHGDSYPFDGPGNTLAHAFAPGTGLGGDAHFDEDERWTDGSSLGINFLYAATHELGHSLGMGHSSDPNAVMYPTYGNGDPQNFKLSQDDIKGIQKLYGKRSNSRKK
B2: MMP11 (Enzo) (protein)
chain: FVLSGGRWEKTDLTYRILRFPWQLVQEQVRQTMAEALKVWSDVTPLTFTEVHEGRADIMIDFARYWHGDDLPFDGPGGILAHAFFPKTHREGDVHFDYDETWTIGDDQGTDLLQVAAHEFGHVLGLQHTTAAKALMSAFYTFRYPLSLSPDDCRGVQHLYGQPWPTVTSRTPALG
B3: MMP12 (Enzo) (protein)
chain: GPVWRKHYITYRINNYTPDMNREDVDYAIRKAFQVWSNVTPLKFSKINTGMADILVVFARGAHGDFHAFDGKGGILAHAFGPGSGIGGDAHFDEDEFWTTHSGGTNLFLTAVHEIGHSLGLGHSSDPKAVMFPTYKYVDINTFRLSADDIRGIQSLYG
B4: MMP1 (Enzo) (protein)
chain: FVLTEGNPRWEQTHLTYRIENYTPDLPRADVDHAIEKAFQLWSNVTPLTFTKVSEGQADIMISFVRGDHRDNSPFDGPGGNLAHAFQPGPGIGGDAHFDEDERWTNNFREYNLHRVAAHELGHSLGLSHSTDIGALMYPSYTFSGDVQLAQDDIDGIQAIYGRSQNPVQP

This data set addresses T1, indicator molecule containing the ….
In the case of B1, the reader value at 0.5 µg/ml MMP (lateral flow) is 373 reader units.
B2 yielded a reader value at 0.5 µg/ml MMP (lateral flow) of 280 reader units.
As for B3, the reader value at 0.5 µg/ml MMP (lateral flow) worked out at 1250 reader units.
The same measure for B4: 478 reader units.
